Measured values as given in a protein production outcome set (Wang et al. 2014).

Assay: label from the status in PepcDB records
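Also: failed if final PepcDB status was selected cloned or expressed and not failed if soluble or beyond.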

Sequence | protein production
MVQEEASCELAPREKKLSIRGAIVKLGNPGFPDASARSLPLNLERLRPGGGGCPQSGSQTLWCSSSLAECSHAEVTSSEGSPRTLGLRGESRDFPVISREGASKAGGGRSGRGQRLPRGSPAGLAGLWLLLLQIARLMARQRTVAGIGPGALLALRALLVAAHPQCLDFRPPFRPPQPLSFCAQYSAFGCCTAEQDAALARRFRALETRMDAGVWATCAGYALDLLCQECSPYAAHLYDAEDPATPLRTVPGLCEDYCLDMWQTCRGLFRHLSPDRELWALESNRAKLCRYLSLDDTDYCFPSLLVNENLNSNLGRVVADAKGCLQLCLEEVANGLRNPVAMVHAGDGSHRFFVAEQVGLVWTYLPDRSRLEKPFLNVSQAVLTSPWEGDERGFLGLAFHPRFPHPSKLYVYYSVGVGFREWIRISEFRISEDDENTVDHGSERIILEIEEPASNHNGGQLLFGDDGFLYIFTGDGGMAGDPFGKFGNAQNKSALLGKVLRIDVDRKERGLPYGIPLDNPFVDDPEARPEVYALGVRNMWRCSFDRGDPVSGTHRGRLFCGDVGQNKYEEVDLVERGRNYGWRAREGFECYDRKLCANASLDDVLPIFAYPHKLGKSVTGGYVYRGCEYPNLNGLYIFGDFMSGRLMSLRENPESGQWKYSEVCMGRGQTCAFPGLINNYYPYIISFAEDEAGELYFMSTGVPSATAARGVIYKVTDPSRRAPPGKCKIRPAQVKVKSHLIPFVPKEKFIRTSESTPRPTARAPTKAPRRRRPTAAPPAPTLRPTKPARPTRRPGARKGGGRRRGRPGTAVPEPQNGSVRLVRPSGLSPGRGRVEVFIGGRWGTVCDDGWDIKAAAVVCRQLGFAHAVRAAKRAEFGEGRALRILLDDVRCAGSERNLLECAHAGVGTHNCKHEEDAGVECSHEDPDL | failed
MASRPSVRHPSHNHPLRGHKAQVEDEIICSGCDLDLLGAYFKCTKSECDYFLHKSCFDLPREIRHKSHPDHPLILLYSPQNNNSTYTCDACGEYGSGFTYNCSICQYDVHVGCVSVPETMKHDEHVHPLALIYKAPCPKDHIFTCDVCDETMPHNLWLYYCQKCDYGAHLHSCVAEEEEKSKKGGRGRGGEGGSGGNGVNRGRSSANSELAAMLKAQREMEQMQIALHLEMQRAKIDKKSRKHMLKMI | failed
MIEKKRIEIFPKHMGFFPYMWFVYLLFPIYHLAQASGWKLVIGSGMLIIFIVTYRQLYFVQRTFVFWACIQMVLIFLFALFYNPFMIFFGFFTASAMGFAPNKKVFRVLLCSLVIMLGAFLFVNMNQLTTTSLVNIVPMFILMILTPFGMRNFNQKKMLRNQLDQANEQIKDLVKREERQRIARDLHDTLGHTLSLITLKSQLVEKLIVKNPERASAEAKEITQTSRTALKQLRELISDMRMITVEEELEQIKAILQAANIELEVRQEARSSSLSPIEQNIVGMCLREAVTNVVKHSKATRCAVSVLESQGELILKVEDNGIGLTDQNHDGNGIRGMKERIALIDGFVELGTINPGTLLTVKVPVVIRTGKDEVRA | failed
MHSVPSTGFPQSEFSGPFWTGRGVACARPNRYVWTARPSDQSSRRMSTSFSRRLRRLQSQKETALCVGLDPVPARFPPSLQDGRLRTDAVRAFCTTIVEATAPYACAFKPNFAFFEALGPAGLTVLDQVVTTIPDDCLVLGDAKRGDIGHSARHYAASIYEELGLDACTVSPYLGRDSVMPFLEHEGTCTFVLARTSNDGAADLQEACTCDGTPLYRHVARRVQAWNADAPGGAGLVVGATAPAALQDLRSLCPSLPFLVPGVGAQGGDAAAVMDAAATDEGPVLVNSSRSILYASEGPNYANAAADAARALRDALNGGASSSRGAPSPPALEHHHHHH | failed
MKFCSQCGGEVILRIPEGDTLPRYICPKCHTIHYQNPKVIVGCIPEWENKVLLCKRAIAPYRGKWTLPAGFMENNETLVQGAARETLEEANARVEIRELYAVYSLPHISQVYMLFRAKLLDLDFFPGIESLEVRLFGEQEIPWNDIAFRVIHDPLKRYMEERHHGQPAFHLGIINKPQAGSNSNE | not failed
MQLTSENYYSQEANKEYMSVSGYKDFAGTYGKMPCEFYGMEKLNGRWEDEKSTALLVGSYVDSYFEGSLDQFKKDNPEIFTQKGELKANFKQAEEIIARIERDEYFMKYMSGQKQVIMTGELFGAKWKIKMDSYIPGVAIVDLKVMASITDLKWVKDIGYLDFVRYWGYDIQGAVYQEIVRQNTGEKLPFFIAGATKQTEPDIRIIHVTDNYLQEALHMVEMNMPRILRVKNGEVEPDRCELCDCCRHNRVLKKPISIMDLTAGI | not failed
FVNTFIQFKKPIIVAVNGPAIGLGASILPLCDVVWANEKAWFQTPYTTFGQSPDGCSTVMFPKIMGGASANEMLLSGRKLTAQEACGKGLVSQVFWPGTFTQEVMVRIKELASCNPVVLEESKALVRCNMKMELEQANERECEVLKKIWGSAQGMDSMLKYLQRKIDEF | failed
MYIVNSYTLAIIFCFITMICWGSWGNTQKLASKNWRYELYYWDYTIGILLFALLLVFTLGSFGDSGRGFLEDIQQVEAAYIASALIGGAIFNASNILLSASVSIAGMAVAFPLGVGLALVLGVFINYFSSPKGDPFWLFTGVVLIVIAIICNGIAAGKNQKAGTNNSKKGIILAAIAGILMSFFYRFVAAAMDLNNFESPTTGMATPYTAFFIFAIGIFLSNFLFNTLVMKRPFVGLPVTYKEYFAGKASTHMVGILGGCIWGLGTALSYIAAGKAGAAISYALGQGAPMIAALWGVFIWKEFTGSSKATNRLLGVMFILFILGLTFIVISGGS | failed
MAKKTGTKEPAPKKEKKKKERRRGKGEGTIVPHASGLFMAQISLGRDPLTGKRIRPTIYDDSEVGVQKKLRKLLIKKDLGKSVKPNKTLVGEWIRIWLDIYSKPNVGIGTWDGYDLNFTNHIENSFIARKTMSGLTTDDLQVYYNMKLLNGRKDGKGGLSTRFVKAIHTVISSAFDQAVTSGHLEKNPASGVRISNKRRPKIKIWNKEQMALYLKAIKKDRLYAAFVTDSKSGLRKSELLALRWSDIDFSTGLTKIERGWVRSPKGTLYLSDLKSENSERTLVFSTDLLKVLLEHKSRQDEEKKTAGKNYIDNGLVFCREDGSYINPSTFTRRHYDLTAKAKLPRISVHALRHSISTALLESGKVDLKQIQEMLGHKDISTTGNYYTDVLERMKQKTSELIDNLIQTEETPAQASLPAAQPSASDLAEEESVEAKNVIDFATRRNEKLFIASNGQKQKNREKAQKP | failed
MTDVFKDMAFQLKTERLDLNMWEESDAVWLRKLIGERGVEMPTIESVRSSLIEMRKKAIENGISLLTIRRRDEGDFIGYCGLIIGRATLEEPEIAYELFKSAHRKGYATEAASAVLEAAIATGRHRLWSTVGAWNTASFRVLEKLGFHRHHSTYGERGEIVWNVRDL | failed
MASWSLRTVPPKMGRVVNCQNHITAGGGRRTLMKIILTGATGFVGCSLVPLLHQQGHELTLLVRSVSKAQRLFAPGSFPQLKAIAYEATKSGDWQKVVDGQDAVINLAGEPISERWTEAYKAEIFDSRKLGTEKLVEAIAKADRKPQVMISGSAIGYYGTSETATFTESSKPGDDFLAEVCQAWENAAHQVEQLGVRLVVFRIGIVLGADGGALAKMLPPFKLFAGGPLGSGEQWFSWIDRRDLIALIDKALTDSTLRGTYNATAPNPVKMKEFCHTLGKVLARPSWLPVPDIALELLLGEGAKLVLEGQEVLPGAISKTDFQFQAPDLETSLRQILGS | failed
LANKQIESRIIQFDVEFPSDEVAKQLSIEKTVPVYHIIRLRKVEGEPYVIEETYMPSNVISELNEDVLHGSVYRHITETLKLTIAGSHRKIRADKSSALDREYLECAPDDPVLEVEQVAFLNTGEPFEYSFARHRYDKFVFSSVHIRK | failed
MFPYKIVDDVVILMPNKELNIENAHLFKKWVFDEFLNKGYNKIFLVLSDVESIDSFSLGVIVNILKSISSSGGFFALVSPNEKVERVLSLTNLDRIVKIYDTISEAMEEVRRK | not failed
MNTEAEQQLLHHARNGNAEEVRKLLEAMARAEVVADIDCKGRSKSNLGWTPLHLACYFGHKQVVQDLLKAGAKVNMLNDMGDTPLHRAAFTGRKELVMLLLEYNADTTVVNGSGQTAKEATHDKEIRQMLEAVERTQQRKLEELLLGAAREGRTAEVSALLSRPNPPDVNCSDQLGNTPLHCAAYRAHKQCVLKLLRSGADPSLKNKNDQKPLDLAHGTEMKHILVGNKVVHKALKRFEGPLWKSSRFFGWKLFWVVLEHGVLSWYRKQPDAVHNSYRQGCKHLTQAVCTVKPTDGCLFSVRCFDDTVHGFRVPKNSLQQSREKWLEAIEEHSAYSTHYCSQDQVTDDEEEDVASAMDLKESLARAQTCQQRLDREIYNFLKMIKECDVAKDMLPSFLQKADVLSEASRETCVALSDCLNLFTKQEGVRNFKLEQEQEKNKILSEALETLATEHHELERSLVEGSPPVSILSEDEFYDALSGSESEGSLTCLEAVTARAFEENEVPANSGKHRMSEGKDCGGGDALSNGIKKHRTSLPSPMFSRNDFSIWSILRKCIGMELSKITMPVIFNEPLSFLQRLTEYMEHTYLIHKASSFSDPVERMQCVAAFAVSAVASQWERTGKPFNPLLGETYELVRDDLGFRLISEQVSHHPPISAFHAEGLNNDFIFHGSIYPKLKFWGKSVEAEPKGTITLELLEHNEAYTWTNPTCCVHNIIVGKLWIEQYGNVEIINHKTGDKCVLNFKPCGLFGKELHKVEGYIQDKSKKKLCALYGKWTECLYSVDPATFDAYKKNDKKNTEEKKTSKQASTSEESDEMPVPDSESVFVIPGSALLWRIAPRPPNSAQMYNFTSFAMVLNEVDKEMETVIPKTDCRLRPDIRAMENGEIDQASEEKKRLEEKQRAARKNRSKSEEDWKTRWFHQGPNPYSGAQDWIYSGSYWDRNYFNLPDIY | failed
MNKGILIVLLAGLVSACTHKEKNPLDSLPDMSAVRANLAFTCVHEADHLPPLDPEADQLFQYGRYLQKKEGPKNFNEVARYYRIAAAYGHYKANSNLQGLVSQGIADSPDAPKETIDLAAQLVNQGIPGGYYDIGHYLELGYGLKQDPEMALRYIRKAADLGNPDAQFYVAEKLAPIDNAPAIARQMWQCATDQGHGRAALTLGVDLKTDKLYPDAAKAFQQGAKSGSSTAALSLRDAFHNPSQSDQLNYLAVPHDPERSRRYGLIWKFLKDNDGRSPKVPDIDKIVPLPPAKLPPWDGTFQWEKDQAAAVPPQKPSDELIERLSKAKHLDPATGLPLAKPEQVAQMETEAAPPPARLPLGTIARTGDSCPQDGVWCVSLAKGMVADAEQSFLKGMELPSLTIYQPRRFAWMDNWMGVRQQTVPVAWKLVGYIHEA | failed
MYSNSKCNKFLMYFIFIIFLFCSCQTFYPKNSPEFSFIENSGKNFVWEKLTEGIFLSHIKYEDYPLIIHAVKIDLTNPKLKIVVTEPALFNSKGMVKRETTLSFARRHNTVIALNAAFFNVISFSFSLRGEPLGIHIDKKINLSKPFPKYGALCFLDDNSAFIIESQNTEDIKADIEYAVSGNRIILKNGKPIITNISKKENSRTCVGLADGGKTLYLFFAEGENKKKSRGITYDQAHFFMKKLGAQDAIHLDGGGSSSLIIKKENSFFVQVPSISHFGLRKVVTNLGFIIED | failed
MKPENFTSEKIPASLDEVSLNYFAHDGNKREYLTYIPSGYSHTIEAPVILNFHGFGGTASGQLALSDWRDLAEKHGIILIYPQGLELQKGGSHWNPDPVSSDSKSISDDLGFVRRLLKRISKNYSIDKSRVYATGYSNGAGMAYGLAHHMPDLIAGIAPVSGLMNDEYLSTTSGGSPVGLISFNGEEDWVRPVNGINGYLASVADISSHWARENSSTQSIAEQFAQANGDRIERTSYSRDDGLTTVEQYLVDRGGHEWFDLDIEGKDLNQLAWQFLSRLRKQD | failed
